Columns and labels:
[1] = molecular target: ERK1 (p44) inactive (GST tagged), human, Invitrogen PV 3312 (human) (UniProt P27361); test: RPA, normal assay
[2] = molecular target: Erk1-BSA 2.7x peptide-protein conjugate (human; bovine); test: RPA, normal assay
[3] = molecular target: Histone H3 recombinant protein, calf, Roche 11 034 758 001 (calf) (UniProt P68432); test: RPA, normal assay
[4] = molecular target: Histone H3 recombinant protein, human, Upstate 14-494 (human) (UniProt P68431); test: RPA, normal assay
[5] = molecular target: Histone H3-BSA 2.7x peptide-protein conjugate (bovine); test: RPA, normal assay
Chain of Histone H3-BSA 2.7x peptide-protein conjugate (bovine) (P02769 25-607 limits assumed): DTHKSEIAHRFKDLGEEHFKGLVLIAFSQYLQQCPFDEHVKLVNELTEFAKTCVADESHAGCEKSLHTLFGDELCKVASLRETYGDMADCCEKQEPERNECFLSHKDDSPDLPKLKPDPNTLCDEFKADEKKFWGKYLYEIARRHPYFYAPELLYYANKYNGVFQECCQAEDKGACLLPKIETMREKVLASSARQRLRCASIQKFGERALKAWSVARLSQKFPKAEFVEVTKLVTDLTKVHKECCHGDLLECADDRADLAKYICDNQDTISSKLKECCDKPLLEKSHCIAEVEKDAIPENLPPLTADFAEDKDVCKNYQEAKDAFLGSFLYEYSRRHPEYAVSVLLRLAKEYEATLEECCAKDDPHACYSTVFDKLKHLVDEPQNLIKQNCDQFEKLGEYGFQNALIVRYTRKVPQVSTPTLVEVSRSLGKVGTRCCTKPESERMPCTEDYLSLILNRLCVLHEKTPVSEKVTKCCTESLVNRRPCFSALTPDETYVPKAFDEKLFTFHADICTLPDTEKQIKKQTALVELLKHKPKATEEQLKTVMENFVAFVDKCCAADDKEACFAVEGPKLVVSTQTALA

[6] = molecular target: ERK1 (p42) active (phospho), human, Active Motif 31 152 (human) (UniProt P27361); test: RPA, competition: +recombinant protein 10 nM (not named)
[7] = molecular target: ERK1 (p44) active (GST tagged), human, Invitrogen PV 3311 (human) (UniProt P27361); test: as above
[8] = molecular target: ERK1 (p44) inactive (GST tagged), human, Invitrogen PV 3312 (human) (UniProt P27361); test: as above
[9] = molecular target: ERK1 (p44), human, Cell Signaling Technology 7416 (human) (UniProt P27361); test: as above
[10] = molecular target: ERK2 (p42), human, Biosource PHO 0104 (human) (UniProt P28482); test: as above
Chain of UniProt P28482 (P28482 2-360 limits assumed): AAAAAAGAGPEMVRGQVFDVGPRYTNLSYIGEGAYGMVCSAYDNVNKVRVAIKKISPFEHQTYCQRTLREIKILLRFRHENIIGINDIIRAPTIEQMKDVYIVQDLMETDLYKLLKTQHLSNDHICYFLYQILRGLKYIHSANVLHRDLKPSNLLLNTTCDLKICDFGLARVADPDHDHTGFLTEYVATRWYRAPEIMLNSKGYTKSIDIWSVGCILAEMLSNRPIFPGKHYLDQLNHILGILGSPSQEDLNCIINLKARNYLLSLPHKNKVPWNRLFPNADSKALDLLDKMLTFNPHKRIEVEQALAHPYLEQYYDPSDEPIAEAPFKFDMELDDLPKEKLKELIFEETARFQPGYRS

[11] = molecular target: Erk1-BSA 2.7x peptide-protein conjugate (human; bovine); test: as above
[12] = molecular target: Histone H3 recombinant protein, calf, Roche 11 034 758 001 (calf) (UniProt P68432); test: as above
[13] = molecular target: Histone H3 recombinant protein, human, Upstate 14-494 (human) (UniProt P68431); test: as above
[14] = molecular target: Histone H3-BSA 2.7x peptide-protein conjugate (bovine); test: as above
[15] = molecular target: pErk1/2-BSA 2.7x peptide-protein conjugate (human; bovine); test: as above
Chain of pErk1/2-BSA 2.7x peptide-protein conjugate (human; bovine) (P02769 25-607 limits assumed): as the sequence (P02769 25-607 limits assumed) above

[16] = molecular target: pRb recombinant protein, human, Active Motif 31 128 (human) (UniProt P06400); test: as above
Chain of UniProt P06400 (P06400 whole entry): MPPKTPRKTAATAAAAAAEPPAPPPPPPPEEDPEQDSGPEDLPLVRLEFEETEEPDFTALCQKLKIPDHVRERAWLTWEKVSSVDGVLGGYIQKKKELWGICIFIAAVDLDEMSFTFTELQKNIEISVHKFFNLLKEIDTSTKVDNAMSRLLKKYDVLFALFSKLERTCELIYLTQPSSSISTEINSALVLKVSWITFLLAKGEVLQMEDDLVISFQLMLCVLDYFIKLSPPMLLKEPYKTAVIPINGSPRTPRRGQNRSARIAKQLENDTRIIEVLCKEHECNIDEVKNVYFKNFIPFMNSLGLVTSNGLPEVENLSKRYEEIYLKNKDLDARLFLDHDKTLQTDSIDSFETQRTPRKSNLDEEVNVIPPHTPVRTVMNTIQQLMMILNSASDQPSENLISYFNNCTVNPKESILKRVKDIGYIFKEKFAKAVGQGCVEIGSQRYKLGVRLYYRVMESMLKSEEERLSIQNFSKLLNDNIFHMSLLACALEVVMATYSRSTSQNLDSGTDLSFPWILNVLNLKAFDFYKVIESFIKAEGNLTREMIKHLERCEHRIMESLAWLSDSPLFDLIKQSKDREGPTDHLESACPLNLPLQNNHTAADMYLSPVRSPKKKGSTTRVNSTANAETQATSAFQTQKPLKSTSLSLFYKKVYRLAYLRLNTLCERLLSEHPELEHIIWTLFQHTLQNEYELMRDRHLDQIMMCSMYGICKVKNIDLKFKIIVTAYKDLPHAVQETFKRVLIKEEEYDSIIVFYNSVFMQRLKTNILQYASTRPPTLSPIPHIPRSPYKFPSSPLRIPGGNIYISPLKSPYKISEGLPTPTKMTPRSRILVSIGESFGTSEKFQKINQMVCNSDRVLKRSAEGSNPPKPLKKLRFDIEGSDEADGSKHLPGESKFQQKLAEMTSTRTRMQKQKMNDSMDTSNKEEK

[17] = molecular target: pRb-BSA 1x peptide-protein conjugate (bovine); test: as above
Chain of pRb-BSA 1x peptide-protein conjugate (bovine) (P02769 25-607 limits assumed): as the sequence (P02769 25-607 limits assumed) above

[18] = molecular target: ERK1 (p42) active (phospho), human, Active Motif 31 152 (human) (UniProt P27361); test: RPA, competition: +recombinant protein 100 nM (not named)
[19] = molecular target: ERK1 (p44) active (GST tagged), human, Invitrogen PV 3311 (human) (UniProt P27361); test: as above
[20] = molecular target: ERK1 (p44) inactive (GST tagged), human, Invitrogen PV 3312 (human) (UniProt P27361); test: as above
[21] = molecular target: ERK1 (p44), human, Cell Signaling Technology 7416 (human) (UniProt P27361); test: as above
[22] = molecular target: ERK2 (p42), human, Biosource PHO 0104 (human) (UniProt P28482); test: as above
[23] = molecular target: Erk1-BSA 2.7x peptide-protein conjugate (human; bovine); test: as above
[24] = molecular target: Histone H3 recombinant protein, calf, Roche 11 034 758 001 (calf) (UniProt P68432); test: as above
[25] = molecular target: Histone H3 recombinant protein, human, Upstate 14-494 (human) (UniProt P68431); test: as above
[26] = molecular target: Histone H3-BSA 2.7x peptide-protein conjugate (bovine); test: as above
[27] = molecular target: pErk1/2-BSA 2.7x peptide-protein conjugate (human; bovine); test: as above
[28] = molecular target: pRb recombinant protein, human, Active Motif 31 128 (human) (UniProt P06400); test: as above
[29] = molecular target: pRb-BSA 1x peptide-protein conjugate (bovine); test: as above
[30] = molecular target: ERK1 (p42) active (phospho), human, Active Motif 31 152 (human) (UniProt P27361); test: RPA, normal assay
[31] = molecular target: ERK1 (p44) active (GST tagged), human, Invitrogen PV 3311 (human) (UniProt P27361); test: RPA, normal assay
[32] = molecular target: ERK1 (p44), human, Cell Signaling Technology 7416 (human) (UniProt P27361); test: RPA, normal assay
[33] = molecular target: ERK2 (p42), human, Biosource PHO 0104 (human) (UniProt P28482); test: RPA, normal assay
[34] = molecular target: pRb recombinant protein, human, Active Motif 31 128 (human) (UniProt P06400); test: RPA, normal assay
[35] = molecular target: pRb-BSA 1x peptide-protein conjugate (bovine); test: RPA, normal assay
[36] = molecular target: ERK1 (p44) active (GST tagged), human, Invitrogen PV 3311 (human) (UniProt P27361); test: RPA standard curves, mean of duplicate assays
[37] = molecular target: ERK1 (p44) active (GST tagged), human, Invitrogen PV 3311 (human) (UniProt P27361); test: RPA standard curve, assay 1, LOD back-calculated from one-site fit
[38] = molecular target: ERK1 (p44) active (GST tagged), human, Invitrogen PV 3311 (human) (UniProt P27361); test: RPA standard curve, assay 2, LOD back-calculated from one-site fit

Chain of Erk1-BSA 2.7x peptide-protein conjugate (human; bovine) (peptide, as listed by the source limits assumed, chain 1 of 2): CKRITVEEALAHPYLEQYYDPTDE
Chain of Erk1-BSA 2.7x peptide-protein conjugate (human; bovine) (P02769 25-607 limits assumed, chain 2 of 2): as the sequence (P02769 25-607 limits assumed) above

Substance | maximum standard curve signal [1] [RFI] | maximum standard curve signal [2] [RFI] | maximum standard curve signal [3] [RFI] | maximum standard curve signal [4] [RFI] | maximum standard curve signal [5] [RFI] | maximum standard curve signal [6] [RFI] | maximum standard curve signal [7] [RFI] | maximum standard curve signal [8] [RFI] | maximum standard curve signal [9] [RFI] | maximum standard curve signal [10] [RFI] | maximum standard curve signal [11] [RFI] | maximum standard curve signal [12] [RFI] | maximum standard curve signal [13] [RFI] | maximum standard curve signal [14] [RFI] | maximum standard curve signal [15] [RFI] | maximum standard curve signal [16] [RFI] | maximum standard curve signal [17] [RFI] | maximum standard curve signal [18] [RFI] | maximum standard curve signal [19] [RFI] | maximum standard curve signal [20] [RFI] | further results
Histone H3 antibody, Abcam ab1791 | 0.02 | 0.01 | 0.43 | 11.2 | 5.38 | 2.4 | 2.2 | 2.54 | 2.19 | 2.3 | 2.8 | 2.5 | 3.16 | 3.93 | 2.57 | 2.77 | 2.57 | 1.87 | 1.37 | 1.32 | maximum standard curve signal [21]: 1.8 RFI; maximum standard curve signal [22]: 1.56 RFI; maximum standard curve signal [23]: 1.42 RFI; maximum standard curve signal [24]: 2.56 RFI; maximum standard curve signal [25]: 2.09 RFI; maximum standard curve signal [26]: 1.68 RFI; maximum standard curve signal [27]: 1.81 RFI; maximum standard curve signal [28]: 2.28 RFI; maximum standard curve signal [29]: 2.46 RFI
p44/42 MAPK (Erk1/2) antibody, Biosource 44-654G | 10.9 | 8.24 | 0.02 |  | 0.04 | 0.31 | 3.88 | 5.17 | 0.15 | 0.9 | 7.88 | 0.07 | 0.09 | 0.13 | 0.08 | 0.11 | 0.1 | 0.15 | 0.32 | 0.38 | maximum standard curve signal [30]: 1.17 RFI; maximum standard curve signal [31]: 10.4 RFI; maximum standard curve signal [32]: 0.28 RFI; maximum standard curve signal [33]: 3.57 RFI; maximum standard curve signal [34]: 0.02 RFI; maximum standard curve signal [35]: 0.03 RFI; mean LOD [36]: 0.044 nM; maximum standard curve signal [21]: 0.16 RFI; maximum standard curve signal [22]: 0.18 RFI; maximum standard curve signal [23]: 5.69 RFI; maximum standard curve signal [24]: 0.15 RFI; maximum standard curve signal [25]: 0.16 RFI; maximum standard curve signal [26]: 0.22 RFI; maximum standard curve signal [27]: 0.14 RFI; maximum standard curve signal [28]: 0.17 RFI; maximum standard curve signal [29]: 0.16 RFI; LOD [37]: 0.04 nM; LOD [38]: 0.047 nM
p44/42 MAPK phospho (pERK1/2) Thr202/Tyr204 antibody, Cell Signaling Technology #9101 | 0.23 | 0.02 | 0.01 | 0.01 | 0.11 |  |  |  |  |  |  |  |  |  |  |  |  |  |  |  | maximum standard curve signal [30]: 0.19 RFI; maximum standard curve signal [31]: 1.66 RFI; maximum standard curve signal [32]: 0.04 RFI; maximum standard curve signal [33]: 0.01 RFI; maximum standard curve signal [34]: 0.01 RFI; maximum standard curve signal [35]: 0.01 RFI; mean LOD [36]: 0.055 nM; LOD [37]: 0.058 nM; LOD [38]: 0.052 nM
